The results in this text go back to the RNAGym collection of RNA variant scans (doi:10.7554/elife.80360).

B1: Hairpin Ribozyme (parent)
chain: GUCCUCUUUCACGUGCGCGUGAAAGAGAGAAGUGAACCAGAGAAACACACGUUGUGGUAUAUUACCUGGUA

The data set covers variants of B1. As to the kind of experiment: self-cleavage, relative activity (ratio to wild type); higher = more cleavage; co-transcriptional.
Consider GUCCUCUUUCAAGUGCACGUGAAAGAGAGAAGUGAACCAGAGAAACACACGUUGUGGUAUAUUACCUGGUA, for which the self-cleavage is 0.746.

With GUCCUCUUUCAAGUGCCCGUGAAAGAGAGAAGUGAACCAGAGAAACACACGUUGUGGUAUAUUACCUGGUA, the self-cleavage is 0.978.

For the variant GUCCUCUUUCAAGUGCUCGUGAAAGAGAGAAGUGAACCAGAGAAACACACGUUGUGGUAUAUUACCUGGUA, the self-cleavage came out at 0.707.

Take GUCCUCUUUCAAGUGCGCGUGAAAGAGAGAAGUGAACUAGAGAAACACACGUUGUGGUAUAUUACCUGGUA: the self-cleavage stood at 0.482.

Regarding GUCCUCUUUCAAGUGCGCGUGAAAGAGAGAAGUGAACGAGAGAAACACACGUUGUGGUAUAUUACCUGGUA, the self-cleavage came to 0.187.

Turning to GUCCUCUUUCAAGUGCGCGUGAAAGAGAGAAGUGAACCAGAGAAUCACACGUUGUGGUAUAUUACCUGGUA, the self-cleavage worked out at 0.132.

For GUCCUCUUUCAAGUGCGCGUGAAAGAGAGAAGUGAACCAGAGAAGCACACGUUGUGGUAUAUUACCUGGUA, the self-cleavage worked out at 0.177.

On to GUCCUCUUUCUCGUGCGCGUGAAAGAGAGAAGUGAACCAGAGAAACACACGUUGUGGUAUAUUACCUAGUA, for which the self-cleavage is 0.316.

Regarding GUCCUCUUUCUCGUGCGCGUGAAAGAGAGAAGUGAACCAGAGAAACACACGUUAUGGUAUAUUACCUGGUA, the self-cleavage is 0.538.

In the case of GUCCUCUUUCAAGUGCGCGUGAAAGAGAGAAGUUAACCAGAGAAACACACGUUGUGGUAUAUUACCUGGUA, the self-cleavage came to 1.31.

On to GUCCUCUUUCAAAUGCGCGUGAAAGAGAGAAGUGAACCAGAGAAACACACGUUGUGGUAUAUUACCUGGUA, for which the self-cleavage amounted to 0.635.

Consider GUCCUCUUUCAACUGCGCGUGAAAGAGAGAAGUGAACCAGAGAAACACACGUUGUGGUAUAUUACCUGGUA, for which the self-cleavage was found to be 0.927.

With GUCCUCUUUCAAGUGCGCGUAAAAGAGAGAAGUGAACCAGAGAAACACACGUUGUGGUAUAUUACCUGGUA, the self-cleavage turned out to be 0.767.

On to GUCCUCUUUCAAGUGCGCGUGAAACAGAGAAGUGAACCAGAGAAACACACGUUGUGGUAUAUUACCUGGUA, for which the self-cleavage came to 0.346.

Take GUCCUCUUUCAAGUGCGCGUGAAAGAGAGAAGUGAACCGGAGAAACACACGUUGUGGUAUAUUACCUGGUA: the self-cleavage worked out at 0.285.

With GUCCUCUUUCAAGUGCGCGUGAAAGAGAGAAGUGAACCUGAGAAACACACGUUGUGGUAUAUUACCUGGUA, the self-cleavage amounted to 0.425.

Take GUCCUCUUUCUCGUGCGCGUGAAAGAGAGAAGUGAACCAGAGAAACACACGUUGUGGUAUAUUACCUGUUA: the self-cleavage stood at 0.26.

Consider GUCCUCUUUCUCGUGCGCGUGAAAGAGAGAAGUGAACCAGAGAAACACACGUUGUGGUAUAUUACCUGCUA, for which the self-cleavage stood at 0.229.

GUCCUCUUUCAAGUGCGCGUGUAAGAGAGAAGUGAACCAGAGAAACACACGUUGUGGUAUAUUACCUGGUA: the self-cleavage was determined as 0.737.

As for GUCCUCUUUCUCGUGCGCGUGAAAGAGAGAAUUGAACCAGAGAAACACACGUUGUGGUAUAUUACCUGGUA, the self-cleavage was determined as 0.0846.

Consider GUCCUCUUUCAAGUGCGCGUGAAAGAGAGAAGUGAACCAGAGAAACACCCGUUGUGGUAUAUUACCUGGUA, for which the self-cleavage was 0.0858.

For the variant GUCCUCUUUCUCGUGCACGUGAAAGAGAGAAGUGAACCAGAGAAACACACGUUGUGGUAUAUUACCUGGUA, the self-cleavage is 0.751.

Take GUCCUCUUUCUCGUGCUCGUGAAAGAGAGAAGUGAACCAGAGAAACACACGUUGUGGUAUAUUACCUGGUA: the self-cleavage was 0.562.

For GUCCUCUUUCAAGUGCGCGUGAAAGAGAGAAGUGAACCAGAGACACACACGUUGUGGUAUAUUACCUGGUA, the self-cleavage stood at 0.0806.

Turning to GUCCUCUUUCAAGUGCGCGUGAAAGAGAGAAGUGAACCAGAGAGACACACGUUGUGGUAUAUUACCUGGUA, the self-cleavage was 0.114.

GUCCUCUUUCUCGUGCGCGUGAAAGAGAGAAGUGAACCAGAGAAACACACGUUGUGGUAUAUUACCUGGGA: the self-cleavage was found to be 0.656.

For the variant GUCCUCUUUCUCGUGCGCGUGAAAGAGAGAAGUGAACCAGAGAAACACACGUUGUGGUAUAUUACCUGGAA, the self-cleavage was found to be 0.914.

GUCCUCUUUCAAGUGCGCGUGAAAGAGAGAAGUGAACCAGAGAAACACACGUUGUGGUGUAUUACCUGGUA: the self-cleavage is 0.226.

Turning to GUCCUCUUUCAAGUGCGCGUGAAAGAGAGAAGUGAUCCAGAGAAACACACGUUGUGGUAUAUUACCUGGUA, the self-cleavage came out at 0.435.

On to GUCCUCUUUCAAGUGCGCGUGAAAGAGAGAAGUGAACCAGAGUAACACACGUUGUGGUAUAUUACCUGGUA, for which the self-cleavage is 0.131.

Consider GUCCUCUUUCUCGUGCGCGUGAAAGAGAGAAGUGAACCAGAGAAACACACGUUGUGGCAUAUUACCUGGUA, for which the self-cleavage was 0.822.

With GUCCUCUUUCUCGUGCGCGUGAAAGAGAGAAGUGAACCAGAGAAACACACGUUGUGAUAUAUUACCUGGUA, the self-cleavage worked out at 0.15.

As for GUCCUCUUUCUCGUGCGCGUGAAAGAGAGAAGUGAACCAGAGAAACACACGUUGUGUUAUAUUACCUGGUA, the self-cleavage came out at 0.337.

For GUCCUCUUUCAAGUGCGCGUGAAAGAGAGAAGUGAACCAGAGAAACACACGUUGUGGUAUAUUACCUCGUA, the self-cleavage was 0.241.

As for GUCCUCUUUCAAGUGCGCGUGAAAGAGAGAAGUGAACCAGAGAAACACACGUUGUGGUAUAUUACCUAGUA, the self-cleavage was found to be 0.262.

As for GUCCUCUUUCUCGUGCGCGUGAAAGAUAGAAGUGAACCAGAGAAACACACGUUGUGGUAUAUUACCUGGUA, the self-cleavage is 0.394.

With GUCCUCUUUCUCGUGCGCGUGAAAGAGAGAAGUGAACCAUAGAAACACACGUUGUGGUAUAUUACCUGGUA, the self-cleavage turned out to be 0.154.

Consider GUCCUCUUUCAAGUGCGCGUGAAAGAGAGAAGUGAACCACAGAAACACACGUUGUGGUAUAUUACCUGGUA, for which the self-cleavage amounted to 0.15.
